Test results: patent US10648014B2, “Degradation resistant peptide based biosensors” (Purdue Research Foundation, priority 2014, dated 2020)
Square brackets hold non-standard residues; d marks the D form. Ends that are not written are not given here. * marks the point of attachment. Biotin = O=C1N[C@H]2[C@H](CS[C@H]2CCCCC(=O)*)N1; photo‑cleavable linker = not defined here

What was measured:
[1] = tested on: K562 chronic myelogenous leukemia (CML) cells; format: in vitro ADME, Human
Method: Biosensor Enrichment: K562 cells were incubated in lysis buffer for 20 minutes. Samples were spun down in 2500×g for 5 minutes at 4° C. Lysate was transferred to new Eppendorf tubes and treated with UV light (CL-1000 Ultraviolet Crosslinker (UVP, Upland, Calif., USA)) for 20 minutes to cleave the photo-cleavable linker. Photocleaved lysate samples were incubated with streptavidin coated agarose beads (Pierce) in 96 well polypropylene filter plate (PALL, Ann Arbor, Mich.) for 20 minutes at room temperature. Following incubation, the plate was spun down at 250×g for 30 seconds over a 96 well collection plate. The wells were washed 4 times with 200 uL of PBS and 2 times with MilliQ water, and spun down for 30 seconds at 250×g after each addition. Beads were resuspended in 15 μL of (75%/25%/0.1%:acetonitrile/water/TFA) elution buffer and shaken for 15 minutes at 600 rpm. Biosensor samples were spotted at 0.5 μL on a MALDI plate with 0.5 μL of matrix (10 mg/mL α-cyano-4-cinnamic acid and 10 mg/mL ammonium hydrogen phosphate, dissolved in 75%/25%/0.1% acetonitrile/water/TFA). Mass analysis was performed using an Applied Biosystems Voyager 4800 MALDI-TOF/TOF using linear positive mode.
Human K562 chronic myelogenous leukemia (CML) cells were exposed to either the control biosensor SEQ ID NO: 52 or the biosensor SEQ ID NO: 47 for 5 minutes as shown in FIGS. 8-13. […]

Bcr-Abl kinase = molecular target: T1, Bcr-Abl kinase (Homo sapiens, UniProt P00519); experiment: K562 cell kinase assay, intracellular phosphorylation of biosensor; format: cell-based; conditions: K562 cells, 60 minutes incubation, FIG. 6
T1 construct: endogenous in cells; host or cells: K562; the other entry of the earlier key: BCR (P11274, Breakpoint cluster region protein)
T1 sequence (P00519 with tags, fused parts or gaps): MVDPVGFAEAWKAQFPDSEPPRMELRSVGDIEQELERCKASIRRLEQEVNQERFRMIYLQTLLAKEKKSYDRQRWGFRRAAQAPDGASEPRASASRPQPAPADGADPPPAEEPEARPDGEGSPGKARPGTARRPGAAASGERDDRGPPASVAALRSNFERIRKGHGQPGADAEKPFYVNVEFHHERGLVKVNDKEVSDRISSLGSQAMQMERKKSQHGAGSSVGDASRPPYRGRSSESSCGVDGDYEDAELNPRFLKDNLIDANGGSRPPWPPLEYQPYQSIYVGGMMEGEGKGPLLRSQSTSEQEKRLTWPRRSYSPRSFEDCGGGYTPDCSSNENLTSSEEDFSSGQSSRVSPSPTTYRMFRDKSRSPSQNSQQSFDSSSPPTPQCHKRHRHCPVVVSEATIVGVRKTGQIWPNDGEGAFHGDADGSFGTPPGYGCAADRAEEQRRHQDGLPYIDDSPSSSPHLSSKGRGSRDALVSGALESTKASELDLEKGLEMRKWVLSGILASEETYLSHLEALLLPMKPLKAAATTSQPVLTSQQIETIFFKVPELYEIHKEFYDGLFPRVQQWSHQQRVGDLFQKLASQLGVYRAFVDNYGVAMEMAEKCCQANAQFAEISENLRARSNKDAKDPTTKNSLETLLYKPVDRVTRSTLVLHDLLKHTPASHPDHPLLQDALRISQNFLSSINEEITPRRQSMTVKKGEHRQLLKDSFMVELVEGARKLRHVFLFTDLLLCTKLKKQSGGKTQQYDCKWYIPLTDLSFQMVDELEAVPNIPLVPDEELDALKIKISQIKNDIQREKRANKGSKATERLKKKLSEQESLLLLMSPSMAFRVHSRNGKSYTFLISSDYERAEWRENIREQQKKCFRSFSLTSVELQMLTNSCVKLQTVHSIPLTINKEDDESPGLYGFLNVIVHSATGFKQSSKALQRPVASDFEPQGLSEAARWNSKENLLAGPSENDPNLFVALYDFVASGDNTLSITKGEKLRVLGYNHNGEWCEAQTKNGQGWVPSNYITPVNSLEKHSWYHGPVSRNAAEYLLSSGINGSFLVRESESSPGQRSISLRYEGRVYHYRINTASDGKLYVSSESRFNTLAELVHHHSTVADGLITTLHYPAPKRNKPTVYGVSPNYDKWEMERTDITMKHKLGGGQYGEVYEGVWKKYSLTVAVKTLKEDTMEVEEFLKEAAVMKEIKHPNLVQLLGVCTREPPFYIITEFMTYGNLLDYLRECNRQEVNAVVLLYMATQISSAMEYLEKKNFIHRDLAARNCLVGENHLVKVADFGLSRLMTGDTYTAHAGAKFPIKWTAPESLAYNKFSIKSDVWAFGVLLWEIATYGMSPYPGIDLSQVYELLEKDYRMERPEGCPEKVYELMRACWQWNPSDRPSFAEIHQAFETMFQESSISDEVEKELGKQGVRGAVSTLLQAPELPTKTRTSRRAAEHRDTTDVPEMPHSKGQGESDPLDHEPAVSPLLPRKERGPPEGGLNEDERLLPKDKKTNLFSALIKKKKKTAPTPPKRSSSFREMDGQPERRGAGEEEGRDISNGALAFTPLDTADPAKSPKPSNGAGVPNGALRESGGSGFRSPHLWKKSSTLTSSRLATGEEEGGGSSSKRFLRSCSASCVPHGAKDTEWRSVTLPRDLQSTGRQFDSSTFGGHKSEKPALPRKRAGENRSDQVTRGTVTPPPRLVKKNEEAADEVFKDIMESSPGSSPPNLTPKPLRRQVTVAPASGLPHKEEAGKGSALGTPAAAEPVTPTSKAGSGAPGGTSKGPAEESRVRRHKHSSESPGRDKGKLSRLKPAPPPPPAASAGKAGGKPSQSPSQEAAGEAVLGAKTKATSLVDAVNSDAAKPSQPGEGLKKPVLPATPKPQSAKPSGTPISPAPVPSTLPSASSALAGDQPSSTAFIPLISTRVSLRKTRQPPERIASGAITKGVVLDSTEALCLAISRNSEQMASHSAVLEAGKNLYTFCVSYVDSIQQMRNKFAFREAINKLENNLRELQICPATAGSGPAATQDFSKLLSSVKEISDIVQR

Lyn kinase = Lyn kinase (Homo sapiens, UniProt P07948); experiment: In vitro kinase assay against Lyn kinase; format: biochemical; conditions: FIG. 2
Sequence of Lyn kinase (P07948 whole entry): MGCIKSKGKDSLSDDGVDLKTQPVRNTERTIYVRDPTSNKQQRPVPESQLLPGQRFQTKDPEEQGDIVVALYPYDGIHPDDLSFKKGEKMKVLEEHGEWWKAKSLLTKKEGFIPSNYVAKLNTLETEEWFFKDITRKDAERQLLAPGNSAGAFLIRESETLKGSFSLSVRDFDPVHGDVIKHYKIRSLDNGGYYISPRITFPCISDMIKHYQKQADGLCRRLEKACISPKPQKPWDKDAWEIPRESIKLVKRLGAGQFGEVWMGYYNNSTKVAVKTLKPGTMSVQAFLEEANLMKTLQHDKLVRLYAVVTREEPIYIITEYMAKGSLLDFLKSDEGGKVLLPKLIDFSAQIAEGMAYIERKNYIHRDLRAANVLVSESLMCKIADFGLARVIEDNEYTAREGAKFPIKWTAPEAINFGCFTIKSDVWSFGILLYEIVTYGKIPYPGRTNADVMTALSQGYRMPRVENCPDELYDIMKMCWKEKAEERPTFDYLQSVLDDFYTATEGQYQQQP
Method: (§1) In Vitro Abl Kinase Assay: The in vitro kinase assays were performed in triplicate in Dulbecco's Phosphate Buffered Saline without Calcium, Magnesium, or Phenol red in water bath maintained at 37° C. The total volume of the assay was 200 uL, and contained 1 mM ATP, 10 mM MgCl2, 5-25 uM of the biosensor, and 6 nM of Arg or Lyn Kinase final concentrations. Initiation of the assay was the addition of 1 uL of Arg Kinase to the reaction mix and heated at 37° C. Aliquots of 20 uL were collected at intervals described over a total run time of up to 60 minutes.
(§2) In order to assess the selectivity of the biosensor SEQ ID NO: 47, we tested against Lyn and Fyn kinases using the in vitro kinase assay.

Fyn kinase = Fyn kinase (Homo sapiens, UniProt P06241); experiment: In vitro kinase assay against Fyn kinase; format: biochemical; conditions: FIG. 2
Sequence of Fyn kinase (P06241 whole entry): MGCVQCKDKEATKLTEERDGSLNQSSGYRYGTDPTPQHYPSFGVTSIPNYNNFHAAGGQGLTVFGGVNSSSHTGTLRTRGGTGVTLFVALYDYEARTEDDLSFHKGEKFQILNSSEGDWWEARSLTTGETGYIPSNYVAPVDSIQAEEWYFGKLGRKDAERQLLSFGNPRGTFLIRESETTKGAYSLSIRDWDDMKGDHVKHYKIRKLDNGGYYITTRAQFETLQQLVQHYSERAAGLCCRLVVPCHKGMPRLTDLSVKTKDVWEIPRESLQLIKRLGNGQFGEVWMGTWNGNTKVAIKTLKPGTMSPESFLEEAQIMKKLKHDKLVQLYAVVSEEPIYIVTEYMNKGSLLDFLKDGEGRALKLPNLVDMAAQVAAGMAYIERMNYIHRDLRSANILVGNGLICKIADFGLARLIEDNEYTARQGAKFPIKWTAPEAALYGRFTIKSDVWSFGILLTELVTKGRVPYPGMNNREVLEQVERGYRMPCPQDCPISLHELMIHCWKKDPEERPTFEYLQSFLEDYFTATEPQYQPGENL
Method: as §1, §2

Abl kinase = experiment: In vitro Abl kinase assay, phosphorylation detected by mass spectrometry; format: biochemical; conditions: for phosphorylation by Abl kinase: in vitro kinase assay, mass spectrometry, FIG. 2; for selectivity toward the Abl family of kinases: in vitro kinase assays Abl vs Lyn and Fyn
Method: as §1
Referring now to FIG. 2, to evaluate the importance of the SH3 targeting sequence, we performed in vitro kinase assays comparing the peptides using the Abl kinase. Phosphorylation was detected using mass spectrometry.

K562 cells = format: cell-based, Human
Method: Flow Cytometry: K562 cells (about 1×10^6 cells/mL) were incubated for 30 minutes with FITC labeled biosensors at various concentrations, 1-50 μM. Cells were centrifuged at about 2500 rpm for about 5 minutes at 4° C. Media was aspirated and cells were washed 3 times with fresh media. A FC500 flow cytometer (Beckman Coulter) was used to analyze 50 μL aliquots of suspended cells.
Flow cytometry was used to verify the uptake of the biosensor SEQ ID NO:47 by K562 cells. We conjugated a FITC fluorophore to the cysteine residue of the biosensor by maleimide reaction.

[2] = biosensor incubated with Abl kinase, Michaelis Menten, FIG. 3

KbiotinkkafpaayiaeG-photo-cleavable linker-GCGAPTYSPPPPPGGrrrqrrkkr (K(Biotin)[dK][dK][dA][dF][dP][dA][dA][dY][dI][dA][dE]G[photo‑cleavable linker]GCGAPTYSPPPPPGG[dR][dR][dR][dQ][dR][dR][dK][dK][dR]; reading uncertain) [SEQ ID NO:47]
degradation after exposure to K562 cells [1]: essentially intact
intracellular phosphorylation of the biosensor (Bcr-Abl kinase): observed
phosphorylation by Lyn kinase (Lyn kinase): did not phosphorylate
selectivity for Abl over Lyn or Fyn kinases (Fyn kinase): selective for Abl over Lyn or Fyn kinases
Km (Abl kinase; [2]): 7.5 µM
Vmax (Abl kinase; [2]): 849.5 pmol/mg/min
phosphorylation by Abl kinase (Abl kinase): phosphorylated with reasonable efficiency
selectivity toward the Abl family of kinases (Abl kinase): relatively selective toward the Abl family of kinases
uptake by K562 cells (K562 cells): confirmed the uptake

KbiotinkkafpaayiaeG-photo-cleavable linker-GCGGrrrqrrkkr (K(Biotin)[dK][dK][dA][dF][dP][dA][dA][dY][dI][dA][dE]G[photo‑cleavable linker]GCGG[dR][dR][dR][dQ][dR][dR][dK][dK][dR]; reading uncertain) [SEQ ID NO: 53]
phosphorylation by Abl kinase (Abl kinase): not appreciably phosphorylated
selectivity toward the Abl family of kinases (Abl kinase): relatively selective toward the Abl family of kinases

EAIYAAFAKKG-Kbiotin-photo-cleavable linker-GCGAPTYSPPPPPGGRKKRRQRRR (EAIYAAFAKKGK(Biotin)[photo‑cleavable linker]GCGAPTYSPPPPPGGRKKRRQRRR; reading uncertain) [SEQ ID NO: 52, reference compound]
degradation after exposure to K562 cells [1]: almost completely degraded
